From patent publication US20240190999A1 (Molecular Partners, published 2024) come the findings set out here.

Assay [1] concerns the target T1, human 4-1BB on transfected HT1080 NF-kB-luciferase reporter cells (human, UniProt Q07011 24-255). Description: cell-based or functional assay.
Assay [2] concerns the target T2, biotinylated human 4-1BB (bio.h4-1BB) (human, UniProt Q07011 24-186, limits assumed, biotinylated (site not stated)).
T2 construct: also called CD137
Description: SPR (ProteOn XPR36), biotinylated h4-1BB immobilised on GLC chip, construct as analyte. As to the method: (§1) Assay set-up: Briefly, SPR measurements were performed using a ProteOn XPR36 instrument (BioRad) as described above. Biotinylated human and cynomolgus 4-1BB and human FAP were immobilized either directly or indirectly via NeutrAvidin (˜6000 RU pre-coated) on a GLC chip to reach 600 RU, 700 RU and 2000 RU, respectively. The interaction of FAP-4-1BB bispecific constructs to the coated targets was measured by injecting the bispecific constructs in a serial dilution of 50, 16.7, 5.6, 1.9 and 0.6 nM with an association of 120 s and dissociation of 1800 s using a constant flow rate of 30 μl/min. Targets were regenerated between the individual measurements using 10 mM glycine pH 2 and 124 mM H₃PO₄. The signals were double referenced against the running buffer (PBST) treated control lane.

In assay [3] the target is T3, human fibroblast activation protein (hFAP) (human, UniProt Q12884 26-760, limits assumed).
T3 construct: Recombinant soluble protein; also called human FAP; rhFAP
Nature of the assay: SPR (ProteOn XPR36), hFAP immobilised on GLC chip, construct as analyte. As to the method:
as §1

Assay [4] deals with T1, human 4-1BB on transfected HT1080 …. Description: cell-based or functional assay. This is another data set of the same source.
For assay [5] the target is unchanged. Nature of the assay: cell-based or functional assay. This is another data set of the same source.
Assay [6] has as its target T2, biotinylated human 4-1BB (bio.h4-1BB). Description: SPR (ProteOn XPR36); end of the group's range, tied to #45 by Table 15. As to the method: as §1
The target in assay [7] is T4, human 4-1BB on primary human CD8 T cells (human, UniProt Q07011 24-255). Description: cell-based or functional assay.
The target in assay [8] is T4, human 4-1BB on primary human CD8 T cells. Nature of the assay: cell-based or functional assay. The source holds these as a separate data set.
Assay [9] addresses T3, human fibroblast activation protein …. Description: SPR (ProteOn XPR36); end of the group's range, tied to #44 by Table 15. As to the method: as §1
For assay [10] the target is unchanged. Nature of the assay: SPR (ProteOn XPR36); end of the group's range, tied to #47 by Table 15. As to the method: as §1
The target of assay [11] is T2, biotinylated human 4-1BB (bio.h4-1BB). Description: SPR (ProteOn XPR36); end of the group's range, tied to #48 by Table 15. As to the method:
as §1

T2 sequence (Q07011 24-186 limits assumed): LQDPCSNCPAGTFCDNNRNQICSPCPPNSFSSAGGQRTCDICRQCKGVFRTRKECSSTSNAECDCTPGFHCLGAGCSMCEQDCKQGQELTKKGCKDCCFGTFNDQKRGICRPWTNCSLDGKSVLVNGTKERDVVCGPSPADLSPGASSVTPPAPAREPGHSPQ
T1 sequence (Q07011 24-255 limits assumed): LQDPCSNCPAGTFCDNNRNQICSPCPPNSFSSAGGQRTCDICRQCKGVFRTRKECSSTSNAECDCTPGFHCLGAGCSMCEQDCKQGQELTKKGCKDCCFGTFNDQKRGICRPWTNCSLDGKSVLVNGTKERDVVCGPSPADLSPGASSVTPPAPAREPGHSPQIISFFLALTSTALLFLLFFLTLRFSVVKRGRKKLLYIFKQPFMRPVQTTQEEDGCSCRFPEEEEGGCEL
T4 sequence (Q07011 24-255 limits assumed): as above
T3 sequence (Q12884 26-760 limits assumed): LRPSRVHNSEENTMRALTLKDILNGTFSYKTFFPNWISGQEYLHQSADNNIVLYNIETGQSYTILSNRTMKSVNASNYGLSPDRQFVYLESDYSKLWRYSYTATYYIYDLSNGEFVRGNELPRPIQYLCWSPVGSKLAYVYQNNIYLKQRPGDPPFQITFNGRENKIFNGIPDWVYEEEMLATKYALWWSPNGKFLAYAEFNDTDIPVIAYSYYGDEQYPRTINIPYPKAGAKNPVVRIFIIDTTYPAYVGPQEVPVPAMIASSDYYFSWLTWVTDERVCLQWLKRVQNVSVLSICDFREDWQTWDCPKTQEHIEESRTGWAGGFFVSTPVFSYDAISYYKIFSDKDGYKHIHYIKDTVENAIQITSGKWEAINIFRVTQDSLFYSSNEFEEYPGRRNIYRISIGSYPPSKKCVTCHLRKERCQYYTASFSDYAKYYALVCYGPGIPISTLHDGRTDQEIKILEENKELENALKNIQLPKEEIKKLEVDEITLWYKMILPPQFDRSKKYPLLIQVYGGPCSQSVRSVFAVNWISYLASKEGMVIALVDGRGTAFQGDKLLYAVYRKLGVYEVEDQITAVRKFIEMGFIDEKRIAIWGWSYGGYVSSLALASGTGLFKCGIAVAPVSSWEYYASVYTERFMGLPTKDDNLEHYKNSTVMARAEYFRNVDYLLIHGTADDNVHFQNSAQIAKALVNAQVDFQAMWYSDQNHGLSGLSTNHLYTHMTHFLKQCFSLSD

B1: bispecific construct #45 (designed binder)
chain: MRGSHHHHHHGSDLGEKLLVAALYGQDDEVRILLAAGADVNAKDQWGLTPLHKAALQGHLEIVEVLLKAGADVNAKDERGHTPLHWAARFGHLEIVEVLLKAGADVNAQDQKGYTPADLAALWGHEDIAEVLQKAAGSPTPTPTTPTPTPTTPTPTPTGSDLGDKLLHAAYYGQDDEVRILLAAGADVNAKDTQGLTPLHLAAAIGHLEIVEVLLKAGADVNAKDAYGETPLHLVASRGHLEIVEVLLKAGADVNAQDYSGRTPADLAAEYGHEDIAEVLQKLN
notes: 56 is used; also called FAP-4-1BB bispecific construct #45
The Kd is a measure of binding affinity in units of concentration. A higher Kd goes with a looser complex. Take B1: the “EC50, 4-1BB activation in HT1080 reporter cells in presence of FAP-expressing CHO cells (Population 1)” value (shortened to “EC50, 4-1BB activation … (Population 1)”) in [1] was 670 pM. Further, the figures for the Kd in assay [2], in assay [3] and in [6] were 1470 pM, 330 pM and 400 to 1500 pM, respectively. Besides, the “EC50, 4-1BB activation in HT1080 reporter cells in presence of FAP-expressing CHO cells (Population 2)” value (shortened to “EC50, 4-1BB activation … (Population 2)”) in assay [4] amounted to 390 pM. For the same molecule, the “EC50, 4-1BB activation in HT1080 reporter cells in presence of FAP-beads” value (shortened to “EC50, 4-1BB activation … of FAP-beads”) in [5] worked out at 5150 pM.

B2: bispecific construct #49 (designed binder)
chain: MRGSHHHHHHGSDLGEKLLVAALYGQDDEVRILLAAGADVNAKDQWGLTPLHKAALQGHLEIVEVLLKAGADVNAKDERGHTPLHWAARFGHLEIVEVLLKAGADVNAQDQKGYTPADLAALWGHEDIAEVLQKAAGSPTPTPTTPTPTPTTPTPTPTGSDLGKKLLVAANVGQDDEVRILLAAGADVNAKDYHGYTPLHHAATYGHLEIVEVLLKAGADVNAKDQTGLTPLHLAAAKGHLEIVEVLLKAGADVNAQDHHGYTPADLAAFVGHEDIAVVLQKLN
notes: 56 is used; also called FAP-4-1BB bispecific construct #49
B2: the “EC50, 4-1BB activation … (Population 1)” value in assay [1] was 910 pM. Besides, the Kd in assay [2] came out at 860 pM; in [3] it was 170 pM. Moreover, the “EC50, 4-1BB activation … (Population 2)” value in assay [4] was determined as 1040 pM. Besides, the “EC50, 4-1BB activation … of FAP-beads” value in assay [5] came to 6520 pM.

B3: Multispecific binding protein B (MpB) (designed binder)
chain: MRGSHHHHHHGSDLGKKLLEAARAGQDDEVRELLKAGADVNAKDYFSHTPLHLAARNGHLKIVEVLLKAGADVNAKDFAGKTPLHLAAADGHLEIVEVLLKAGADVNAQDIFGKTPADIAADAGHEDIAEVLQKAAGSPTPTPTTPTPTPTTPTPTPTGSDLGEKLLVAALYGQDDEVRELLKAGADVNAKDQWGLTPLHKAALQGHLEIVEVLLKAGADVNAKDERGHTPLHWAARFGHLEIVEVLLKAGADVNAQDQKGYTPADLAALWGHEDIAEVLQKAAGSPTPTPTTPTPTPTTPTPTPTGSDLGQKLLKAAQEGQDDEVRELLKAGADVNAKDLRGITPLHVAAWQGHLEIVEVLLKAGADVNAKDSKGETPLHLAAFRGHLEIVEVLLKAGADVNAQDQQGETPADLAALAGHVDIAEVLQKAAGSPTPTPTTPTPTPTTPTPTPTGSDLGQKLLKAAQEGQDDEVRELLKAGADVNAKDLRGITPLHVAAWQGHLEIVEVLLKAGADVNAKDSKGETPLHLAAFRGHLEIVEVLLKAGADVNAQDQQGETPADLAALAGHVDIAEVLQKAAGSPTPTPTTPTPTPTTPTPTPTGSDLGKKLLEAARAGQDDEVRELLKAGADVNAKDYFSHTPLHLAARNGHLKIVEVLLKAGADVNAKDFAGKTPLHLAAADGHLEIVEVLLKAGADVNAQDIFGKTPADIAADAGHEDIAEVLQKAA
As for B3, the “EC50, IFNγ secretion of human CD8 T cells (plate-coated hFAP)” value in assay [7] lay within 1000 to 2000 pM. Further, the “EC50, IFNγ production by primary human CD8 T cells (anti-CD3 plus plate-coated hFAP)” value in assay [8] was 1540 pM.

B4: bispecific construct #44 (designed binder)
chain: MRGSHHHHHHGSDLGEKLLVAALYGQDDEVRILLAAGADVNAKDQWGLTPLHKAALQGHLEIVEVLLKAGADVNAKDERGHTPLHWAARFGHLEIVEVLLKAGADVNAQDQKGYTPADLAALWGHEDIAEVLQKAAGSPTPTPTTPTPTPTTPTPTPTGSDLGQKLLKAAQEGQDDEVRELLKAGADVNAKDLRGITPLHVAAWQGHLEIVEVLLKAGADVNAKDSKGETPLHLAAFRGHLEIVEVLLKAGADVNAQDQQGETPADLAALAGHVDIAEVLQKLN
notes: also called FAP-4-1BB bispecific construct #44
As for B4, in [1], the “EC50, 4-1BB activation … (Population 1)” value stood at 470 pM. For the same molecule, the Kd in assay [2] was 1450 pM; in [3] it was 360 pM; in assay [9], 100 to 400 pM. Besides, in assay [4], the “EC50, 4-1BB activation … (Population 2)” value worked out at 360 pM. In addition, in assay [5], the “EC50, 4-1BB activation … of FAP-beads” value worked out at 4590 pM.

B5: His-MpA (His-tagged version of MpA) (designed binder)
chain: GSDLGKKLLEAARAGQDDEVRELLKAGADVNAKDYFSHTPLHLAARNGHLKIVEVLLKAGADVNAKDFAGKTPLHLAAADGHLEIVEVLLKAGADVNAQDIFGKTPADIAADAGHEDIAEVLQKAAGSPTPTPTTPTPTPTTPTPTPTGSDLGKKLLEAARAGQDDEVRELLKAGADVNAKDVLGWTPLHLAAFEGHLEIVEVLLKAGADVNAKDKKGWTPLQLAARTGHLEIVEVLLKAGADVNAKDHIGATPLHLAAWQGHPEIVEVLLKAGADVNAQDKSGKTPADLAADAGHEDIAEVLQKAAGSPTPTPTTPTPTPTTPTPTPTGSDLGQKLLKAAQEGQDDEVRELLKAGADVNAKDLRGITPLHVAAWQGHLEIVEVLLKAGADVNAKDSKGETPLHLAAFRGHLEIVEVLLKAGADVNAQDQQGETPADLAALAGHVDIAEVLQKAAGSPTPTPTTPTPTPTTPTPTPTGSDLGQKLLKAAQEGQDDEVRELLKAGADVNAKDLRGITPLHVAAWQGHLEIVEVLLKAGADVNAKDSKGETPLHLAAFRGHLEIVEVLLKAGADVNAQDQQGETPADLAALAGHVDIAEVLQKAAGSPTPTPTTPTPTPTTPTPTPTGSDLGKKLLEAARAGQDDEVRELLKAGADVNAKDYFSHTPLHLAARNGHLKIVEVLLKAGADVNAKDFAGKTPLHLAAADGHLEIVEVLLKAGADVNAQDIFGKTPADIAADAGHEDIAEVLQKAA
As to B5, the “EC50, IFNγ secretion of human CD8 T cells (plate-coated hFAP)” value in assay [7] was in the range of 1000 to 3000 pM. Moreover, the “EC50, IFNγ production by primary human CD8 T cells (anti-CD3 plus plate-coated hFAP)” value in [8] stood at 2370 pM.

B6: bispecific construct #47 (designed binder)
chain: MRGSHHHHHHGSDLGEKLLVAALYGQDDEVRILLAAGADVNAKDQWGLTPLHKAALQGHLEIVEVLLKAGADVNAKDERGHTPLHWAARFGHLEIVEVLLKAGADVNAQDQKGYTPADLAALWGHEDIAEVLQKAAGSPTPTPTTPTPTPTTPTPTPTGSDLGKKLLEAARAGQDDEVRELLKAGADVNAKDTYGETPLHLAAWKGHLEIVEVLLKAGADVNAKDSIGITPLHVAAHHGHLEIVEVLLKAGADVNAKDKWGRTPLHLAALLGHLEIAEVLLKAGADVNAQDKSGKTPADLAADAGHDDIAEVLQKLN
notes: 56 is used; also called FAP-4-1BB bispecific construct #47
B6: in assay [1], the “EC50, 4-1BB activation … (Population 1)” value amounted to 360 pM. Moreover, the values for the Kd in assay [2], in assay [3] and in [10] were 770 pM, 70 pM and 100 to 400 pM, respectively. Besides, the “EC50, 4-1BB activation … (Population 2)” value in assay [4] turned out to be 180 pM. Moreover, the “EC50, 4-1BB activation … of FAP-beads” value in [5] was determined as 6190 pM.

B7: bispecific construct #46 (designed binder)
chain: MRGSHHHHHHGSDLGEKLLVAALYGQDDEVRILLAAGADVNAKDQWGLTPLHKAALQGHLEIVEVLLKAGADVNAKDERGHTPLHWAARFGHLEIVEVLLKAGADVNAQDQKGYTPADLAALWGHEDIAEVLQKAAGSPTPTPTTPTPTPTTPTPTPTGSDLGRKLLQAAQLGQDDEVRELLKAGADVNAKDSRGITPLHVAAWQGHLEIVEVLLKASADVNAKDHAGITPLHLAAFLGHLEIVEVLLKAGADVNAQDQEGRTPADLAALQGHEDIAKVLQKLN
notes: 56 is used; also called FAP-4-1BB bispecific construct #46
For the molecule B7, in assay [1], the “EC50, 4-1BB activation … (Population 1)” value was 730 pM. The Kd in assay [2] came out at 1150 pM; in assay [3] it was 270 pM. For the same molecule, in [4], the “EC50, 4-1BB activation … (Population 2)” value amounted to 370 pM. Further, the “EC50, 4-1BB activation … of FAP-beads” value in assay [5] turned out to be 5850 pM.

B8: bispecific construct #48 (designed binder)
chain: MRGSHHHHHHGSDLGEKLLVAALYGQDDEVRILLAAGADVNAKDQWGLTPLHKAALQGHLEIVEVLLKAGADVNAKDERGHTPLHWAARFGHLEIVEVLLKAGADVNAQDQKGYTPADLAALWGHEDIAEVLQKAAGSPTPTPTTPTPTPTTPTPTPTGSDLGKKLLEAARAGQDDEVRELLKAGADVNAKDQEHGSTPLHLAANYGHLEIVEVLLKAGADVNAKNWWGNTPLHLAAVYGHLEIVEVLLKAGADVNAKDNHGHTPLHLAAWYGHLEIVEVLLKAGADVNAQDKSGKTPADLAADAGHEDIAEVLQKAA
notes: 56 is used; also called FAP-4-1BB bispecific construct #48
On to B8, for which the “EC50, 4-1BB activation … (Population 1)” value in [1] is 280 pM. The Kd is 440 pM in assay [2], 170 pM in assay [3] and 400 to 1500 pM in assay [11]. In assay [4], the “EC50, 4-1BB activation … (Population 2)” value came out at 160 pM. Moreover, in [5], the “EC50, 4-1BB activation … of FAP-beads” value worked out at 3710 pM.
